In general, EC50 refers to the concentration at which the effect is half-maximal.

The target of the assay is T1, 重组人CD24蛋白 (human, UniProt P25063 27-59, limits assumed).
T1 construct: also called 重组人CD24抗原
T1 chain (looked up): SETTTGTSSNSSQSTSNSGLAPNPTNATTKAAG
The assay can be described thus: indirect ELISA, recombinant human CD24 coated at 0.5 ug/mL, antibody 0.08-2.5 nM, goat anti-human IgG detection. In general terms: In an ELISA, binding on a coated surface is turned into a signal by an enzyme label.

B1: CD24单克隆抗体cG7 (antibody, human IgG1, V domains shown)
VH: QVKLEESGGGLVQPGGSLKISCAASGFDFSRYWMSWVRQAPGKGLEWIGEINPDSSTINYTPSLRDKFIISRDNAKNTLYLQMSKVRYEDTSLYYCARQGDYWGQGTSVTVSS
VL: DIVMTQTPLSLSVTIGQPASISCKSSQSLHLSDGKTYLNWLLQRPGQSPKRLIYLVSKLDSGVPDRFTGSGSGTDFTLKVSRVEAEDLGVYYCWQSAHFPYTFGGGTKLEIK
notes: also called 亲本CD24单克隆抗体cG7; CD24嵌合抗体
In the case of B1, the EC50 stood at 0.152 nM.

B2: 带有工程化半胱氨酸的CD24单克隆抗体cG7SV (antibody, V domains shown)
VH: QVKLEESGGGLVQPGGSLKISCAASGFDFSRYWMSWVRQAPGKGLEWIGEINPDSSTINYTPSLRDKFIISRDNAKNTLYLQMSKVRYEDTSLYYCARQGDYWGQGTSVTVSS
VL: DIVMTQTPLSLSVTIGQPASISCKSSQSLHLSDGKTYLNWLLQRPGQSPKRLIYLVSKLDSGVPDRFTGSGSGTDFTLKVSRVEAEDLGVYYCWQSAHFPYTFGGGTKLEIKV
notes: also called 带有工程化半胱氨酸的CD24嵌合抗体
As for B2, the EC50 was determined as 0.153 nM.
